How the values were obtained:
[1] = cited from earlier work
trypsin = molecular target: T1, trypsin (Bos taurus, UniProt P00760); assay: Trypsin degradation assay; format: in vitro ADME
T1 sequence (P00760 24-246): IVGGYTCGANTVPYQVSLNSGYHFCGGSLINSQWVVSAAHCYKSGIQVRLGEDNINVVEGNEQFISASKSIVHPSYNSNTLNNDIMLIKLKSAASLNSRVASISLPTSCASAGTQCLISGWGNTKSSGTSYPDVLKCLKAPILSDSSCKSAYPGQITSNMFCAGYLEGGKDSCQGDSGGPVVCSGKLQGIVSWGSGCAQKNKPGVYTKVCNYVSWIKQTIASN

Row | Substance | pKa of the lysine side-chain amine [1] | pKa of the two N-terminal amines (A1 and B1) [1] | degradation half-life compared to HI + free Prg-SFTI 7 (trypsin; enzyme/substrate ratio 1:2) | degradation half-life compared to HI + free Prg-SFTI 7 (trypsin; enzyme/substrate ratio 1:4)
1 | insulin | ~10 | ~7 |  | 
2 | SFTI-Triazolyl-(GQAP)49-GQEP-Cys(B29Nε-Acetyl desB30 Human Insulin) (bicyclic or more) [insulin-SFTI 9] |  |  | 3 times | twice as long
